Reference: patent US8173668B1 (Alcon Research, Ltd., priority 2007, dated 2012)

What was measured:
[1] = test system: conscious ocular hypertensive cynomolgus monkey eyes; test: IOP response in lasered (hypertensive) eyes of conscious cynomolgus monkeys, topical ocular; assay type: in vivo; settings: for % Change in IOP: Table 10, 300 μg topical ocular
Method: Intraocular pressure (IOP) is determined with an Alcon Pneumatonometer (Alcon Laboratories, Inc., Fort Worth, Tex.) after light corneal anesthesia with 0.1% proparacaine. Right eyes are hypertensive as a result of laser trabeculoplasty. After a baseline IOP measurement, test compound is instilled in the right eyes only of 8-10 cynomolgus monkeys. Vehicle is instilled in the right eyes of 5-6 additional animals. Subsequent IOP measurements are taken at 1, 3, and 6 hours. IOP measurements are also taken on left eyes (normotensive and untreated) at each of these time points. The percent change in IOP from baseline is determined for each animal for every IOP measurement (Sharif et al. J. Ocular Pharmacol. Ther. 17: 305-317, 2001; May et al., J Pharmacol Exp Ther. 306: 301-309, 2003; Sharif et al. Invest. Ophthalmol. Vis. Res. 47: 4001-4010, 2006). Group mean and standard error of the mean (SEM) are calculated for each time point. […] In cases where the compound of invention has poor ocular bioavailability, the compound may need to be administered intracamerally or intravitreally in order to observe the IOP-lowering efficacy.
The IOP-lowering effect was slow to develop but significant IOP reduction was observed even 3 hours post-dosing with maximum ocular hypotension observed 16-48 hours post-dosing (Tables 6-8; FIGS. 3b-5).

[2] = molecular target: human bradykinin B2-receptor (human) (UniProt P30411); test: cell-based or functional assay
[3] = molecular target: T1, B2-receptors in h-TM cells (Homo sapiens, UniProt P30411); test: [Ca2+]i mobilization (FLIPR) in h-TM cells, agonist mode; assay type: cell-based; settings: HTM, read-out: Intrinsic Activity (Emax, % max relative to BK)
T1 construct: B2-receptor proteins in h-TM, h-CM and h-NPE cells; endogenous in cells; host or cells: human trabecular meshwork (h-TM), human ciliary muscle (h-CM) and human non-pigmented ciliary epithelial (h-NPE) cells
T1 sequence (P30411 1-391): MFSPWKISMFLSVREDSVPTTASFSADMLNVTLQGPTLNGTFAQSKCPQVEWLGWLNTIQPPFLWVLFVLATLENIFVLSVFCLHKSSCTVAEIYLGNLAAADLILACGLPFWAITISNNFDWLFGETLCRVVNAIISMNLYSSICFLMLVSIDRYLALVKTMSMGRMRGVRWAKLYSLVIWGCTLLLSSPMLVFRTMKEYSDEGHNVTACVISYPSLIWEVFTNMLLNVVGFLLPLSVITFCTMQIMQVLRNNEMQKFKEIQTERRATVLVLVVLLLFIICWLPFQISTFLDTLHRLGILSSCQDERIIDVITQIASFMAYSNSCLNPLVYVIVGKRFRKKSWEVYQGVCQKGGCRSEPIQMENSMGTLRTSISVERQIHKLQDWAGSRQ
Method: (§1) On the day of the experiment, one vial of FLIPR Calcium Assay Kit dye is re-suspended in 50 mL of a FLIPR buffer consisting of Hank's Balanced Salt Solution (HBSS), 20 mM HEPES, and 2.5 mM probenecid, pH 7.4. Cells are loaded with the calcium-sensitive dye by addition of an equal volume (50 μL) to each well of the 96-well plate and incubated with dye for 1 h at 23° C. After this time, the test compound plate and cell plate are placed in the FLIPR instrument. At the beginning of an experimental run, a signal test is performed to check the basal fluorescence signal from the dye-loaded cells and the uniformity of the signal across the plate. The basal fluorescence is adjusted between 8000-12000 counts by modifying the exposure time, the camera F-stop, or the laser power. Instrument settings for a typical assay are the following: laser power 0.3-0.6 W, camera F-stop F/2, and exposure time 0.4 sec.
(§2) Fluorescence data are collected in real-time at 1.0 sec intervals for the first 60 secs and at 6.0 sec intervals for an additional 120 secs. […] The data are then analyzed using an automated, iterative, sigmoidal curve-fitting computer program to obtain the potency and intrinsic activities of the test agents as previously described (Sharif et al. J. Pharmacol. Exp. Ther. 286: 1094-1102, 1998; Sharif et al. Invest. Ophthalmol. Vis. Sci. 39:2562-2571, 1998; Kelly et al. J. Pharmacol. Exp. Ther. 304: 238-245, 2003). The sources of materials and reagents for such assays can be found in the references cited above.

[4] = molecular target: T2, B2-receptors in h-CM cells (Homo sapiens, UniProt P30411); test: [Ca2+]i mobilization (FLIPR) in h-CM cells, agonist mode; assay type: cell-based; settings: read-out: Intrinsic Activity (Emax, % max relative to BK)
T2 construct: B2-receptor proteins in h-TM, h-CM and h-NPE cells; endogenous in cells; host or cells: human trabecular meshwork (h-TM), human ciliary muscle (h-CM) and human non-pigmented ciliary epithelial (h-NPE) cells
T2 sequence (P30411 1-391): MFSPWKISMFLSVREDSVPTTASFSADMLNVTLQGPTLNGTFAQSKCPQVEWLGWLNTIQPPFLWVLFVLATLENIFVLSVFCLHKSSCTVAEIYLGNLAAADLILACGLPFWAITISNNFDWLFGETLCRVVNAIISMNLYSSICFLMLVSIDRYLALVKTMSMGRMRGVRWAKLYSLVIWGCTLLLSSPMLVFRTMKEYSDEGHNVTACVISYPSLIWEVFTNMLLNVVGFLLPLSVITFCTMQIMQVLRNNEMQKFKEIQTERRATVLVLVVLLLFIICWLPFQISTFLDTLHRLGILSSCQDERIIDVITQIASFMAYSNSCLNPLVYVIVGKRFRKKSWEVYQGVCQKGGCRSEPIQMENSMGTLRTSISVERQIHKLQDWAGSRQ
Method: as §1, §2

[5] = molecular target: T3, B2-receptors in h-NPE cells (Homo sapiens, UniProt P30411); test: [Ca2+]i mobilization (FLIPR) in h-NPE cells, agonist mode; assay type: cell-based; settings: read-out: Intrinsic Activity (Emax, % max relative to BK)
T3 construct: B2-receptor proteins in h-TM, h-CM and h-NPE cells; endogenous in cells; host or cells: human trabecular meshwork (h-TM), human ciliary muscle (h-CM) and human non-pigmented ciliary epithelial (h-NPE) cells
T3 sequence (P30411 1-391): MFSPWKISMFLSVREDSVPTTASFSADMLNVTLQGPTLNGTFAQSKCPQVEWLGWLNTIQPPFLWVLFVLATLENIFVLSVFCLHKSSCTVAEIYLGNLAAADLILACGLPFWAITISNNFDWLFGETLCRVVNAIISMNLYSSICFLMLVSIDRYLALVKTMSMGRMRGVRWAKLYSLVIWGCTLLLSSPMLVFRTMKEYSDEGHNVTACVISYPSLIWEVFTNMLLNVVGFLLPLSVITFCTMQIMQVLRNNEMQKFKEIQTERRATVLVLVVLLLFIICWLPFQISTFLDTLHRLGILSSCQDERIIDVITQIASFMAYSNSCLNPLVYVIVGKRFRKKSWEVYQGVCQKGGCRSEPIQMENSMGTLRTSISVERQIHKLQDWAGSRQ
Method: as §1, §2

[6] = molecular target: T4, human bradykinin B2-receptor (human, UniProt P30411 1-391); test: cell-based or functional assay
T4 sequence (looked up): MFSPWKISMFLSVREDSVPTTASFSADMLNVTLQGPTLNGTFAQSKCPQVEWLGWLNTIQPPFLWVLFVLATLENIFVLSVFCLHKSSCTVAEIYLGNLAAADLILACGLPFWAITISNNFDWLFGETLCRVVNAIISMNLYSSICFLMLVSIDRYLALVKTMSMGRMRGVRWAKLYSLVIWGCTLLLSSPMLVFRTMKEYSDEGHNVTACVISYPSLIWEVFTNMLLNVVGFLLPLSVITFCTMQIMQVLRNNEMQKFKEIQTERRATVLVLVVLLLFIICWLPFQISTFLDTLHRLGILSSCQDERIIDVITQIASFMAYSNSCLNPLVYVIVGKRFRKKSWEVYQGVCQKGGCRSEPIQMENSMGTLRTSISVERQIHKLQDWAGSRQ

[7] = test system: B1-receptor mRNA; test: Microarray analysis of B1-receptor mRNA in TGFβ2-treated human TM cells; assay type: cell-based; settings: Glaucomatous h-TM Cells, mean ± SEM
[8] = test system: B2-receptor mRNA; test: Microarray analysis of B2-receptor mRNA in TGFβ2-treated human TM cells; assay type: cell-based; settings: mean ± SEM

Molecule: CCCC[P+](CCCC)(CCCC)Cc1ccc(NC(=O)[C@H](Cc2ccc3ccccc3c2)NC(=NC2CCCCC2)NC2CCCCC2)cc1.[Cl-] [WIN-64338, reference compound]
- modulation of IOP ([1]; 300 μg topically administered): failed to modulate IOP
- % Change in IOP ([1]; Dose 1/1 hr): 1.7 ± 1.6%
- % Change in IOP ([1]; Dose 1/3 hr): −10.4 ± 2.8%
- % Change in IOP ([1]; Dose 1/6 hr): 1.3 ± 1.3%

Molecule: Des-Arg^9-BK (Arg-Pro-Pro-Gly-Phe-Ser-Pro-Phe) (peptide)
- [Ca2+]i mobilization in h-CM cells: Intrinsic Activity (Emax, % max relative to BK) [2]: 94%
- [Ca2+]i mobilization in h-CM cells: Potency (EC50; nM) [2]: 4260 nM
- [Ca2+]i mobilization in h-NPE cells: Intrinsic Activity (Emax, % max relative to BK) [2]: 70%
- [Ca2+]i mobilization in h-NPE cells: Potency (EC50; nM) [2]: 16000 nM
- [Ca2+]i mobilization in h-TM cells: Intrinsic Activity (Emax, % max relative to BK) [2]: 112%
- [Ca2+]i mobilization in h-TM cells: Potency (EC50; nM) [2]: 2570 nM

Molecule: H-RPPGFSPFR-OH [BK]
- Emax [3]: 110%
- Emax [4]: 104%
- Emax [5]: 98%

Molecule: Hyp^3-BK (Arg-Pro-Hyp-Gly-Phe-Ser-Pro-Phe-Arg) (peptide)
- [Ca2+]i mobilization in h-CM cells: Intrinsic Activity (Emax, % max relative to BK) [2]: 105%
- [Ca2+]i mobilization in h-NPE cells: Intrinsic Activity (Emax, % max relative to BK) [2]: 93%
- [Ca2+]i mobilization in h-NPE cells: Potency (EC50; nM) [2]: 6 nM
- [Ca2+]i mobilization in h-TM cells: Intrinsic Activity (Emax, % max relative to BK) [2]: 110%
- [Ca2+]i mobilization in h-TM cells: Potency (EC50; nM) [2]: 0.9 nM

Molecule: KRPPGFSPFR [Lys-BK (Lys-Arg-Pro-Pro-Gly-Phe-Ser-Pro-Phe-Arg)]
- [Ca2+]i mobilization in h-CM cells: Intrinsic Activity (Emax, % max relative to BK) [6]: 115%
- [Ca2+]i mobilization in h-CM cells: Potency (EC50; nM) [6]: 3.2 nM
- [Ca2+]i mobilization in h-NPE cells: Intrinsic Activity (Emax, % max relative to BK) [6]: 90%
- [Ca2+]i mobilization in h-NPE cells: Potency (EC50; nM) [6]: 19.6 nM
- [Ca2+]i mobilization in h-TM cells: Intrinsic Activity (Emax, % max relative to BK) [6]: 115%
- [Ca2+]i mobilization in h-TM cells: Potency (EC50; nM) [6]: 1.9 nM

Molecule: MKRPPGFSPFR [Met-Lys-BK (Met-Lys-Arg-Pro-Pro-Gly-Phe-Ser-Pro-Phe-Arg)]
- [Ca2+]i mobilization in h-CM cells: Intrinsic Activity (Emax, % max relative to BK) [6]: 110%
- [Ca2+]i mobilization in h-CM cells: Potency (EC50; nM) [6]: 16.1 nM
- [Ca2+]i mobilization in h-NPE cells: Intrinsic Activity (Emax, % max relative to BK) [6]: 77%
- [Ca2+]i mobilization in h-NPE cells: Potency (EC50; nM) [6]: 125 nM
- [Ca2+]i mobilization in h-TM cells: Intrinsic Activity (Emax, % max relative to BK) [6]: 111%
- [Ca2+]i mobilization in h-TM cells: Potency (EC50; nM) [6]: 6.5 nM

B1: TGFβ2: cytokine transforming growth factor-β2 (protein, UniProt P61812 303-414, looked up)
Transforming growth factor …: ALDAAYCFRNVQDNCCLRPLYIDFKRDLGWKWIHEPKGYNANFCAGACPYLWSSDTQHSRVLSLYNTINPEASASPCCVSQDLEPLTILYYIGKTPKIEQLSNMIVKSCKCS
- Normalized Levels of B1-receptor mRNA (GC-RMA) ([7]; after 1.5 hr): 1.54 ± 0.09
- Normalized Levels of B1-receptor mRNA (GC-RMA) ([7]; after 16 hr): 0.53 ± 0.05
- Normalized Levels of B2-receptor mRNA (GC-RMA) ([8]; Glaucomatous h-TM Cells, after 1.5 hr): 0.97 ± 0.06
- Normalized Levels of B2-receptor mRNA (GC-RMA) ([8]; Glaucomatous h-TM Cells, after 16 hr): 0.24 ± 0.06
- Normalized Levels of B2-receptor mRNA (GC-RMA) ([8]; Normal h-TM Cells, after 1.5 hr): 0.68 ± 0.05
- Normalized Levels of B2-receptor mRNA (GC-RMA) ([8]; Normal h-TM Cells, after 16 hr): 0.14 ± 0.11
